Laboratory results from publication PMC4303316 (Biochemistry, 2014).
No end group written: not given here.

B1: EhRacC^Q65L (GTPase-deficient EhRacC mutant, GTP-bound) (enzyme, Entamoeba histolytica (strain HM-1:IMSS), UniProt Q24816 1-182, looked up)
chain: MSEKPTSIKLVVVGDGAVGKTCLLISYSIRKFPEDYIPTVFDNYVVSLTAGTRQIQLALWDTAGLEEYDQLRPLSYSSASIFLICFSVTSSVSYDNVITKWHPEVIHFAPKVPIILVGTKLDTRNDPAIVKRLTEQGMTVINTAKGEELKNRIKAVKYIECSAKTSENLKTVFDEAVKTVLM
B2: His6-EhPAK4 PBD (p21 binding domain of Entamoeba histolytica p21-activated kinase 4) (domain or fragment, Entamoeba histolytica (strain HM-1:IMSS), UniProt C4LSU1 12-78, looked up)
chain: ELIISDPTDFEQITHVELGDSGLTGFPPEWREKLIKAGLTEAEINTNEDSAKLVAASGISNDNGNRT
B3: His6-EhPAK5 PBD (p21 binding domain of Entamoeba histolytica p21-activated kinase 5) (domain or fragment, Entamoeba histolytica (strain HM-1:IMSS), UniProt C4MBQ2 105-161, looked up)
chain: His6-DISEPTDYHHLTHVAYEEGGFVGIPYEWENVFLACGITREEIKSNKEDAIKVLEFTQ

Experiments:
[1] = biological target: T1, EhPAK4 PBD, tag removed (crystallographic construct) (Entamoeba histolytica (strain HM-1:IMSS), UniProt C4LSU1 12-78); assay: SEC
T1 sequence (looked up): B2 chain

[2] = biological target: B1; assay: SPR

B1 was tested, and the “stoichiometry N” value [1] was 1 EhRacC:EhPAK4.

B2 was tested, and the Kd [2] was 170 ± 30 nM.

With B3 the Kd [2] was 1900 ± 200 nM.
